Laboratory results from paper PMC5730761, “NS3 from Hepatitis C Virus Strain JFH-1 Is an Unusually Robust Helicase That Is Primed To Bind and Unwind Viral RNA”.

Columns and labels:
gt1b NS3 [1] = target: T1, gt1b NS3 (Hepatitis C virus genotype 1b strain N, UniProt Q9WPH5 1028-1658); assay: filter binding; 3 mM Mg2+; (stopped-flow kon 13 uM-1 s-1, Fig 2A); 25 mM MOPS-NH4+ pH 6.5, 3 mM MgCl2, 30 mM NaCl, 1% glycerol, 2 mM DTT, 0.1% Triton X-100; filter binding 37 C, 0.5 nM RNA, Hill fit; stopped flow 25 C; conditions: protein: recombinant; tags: His6-SUMO removed (native N terminus); 5' Cy3 top strand via C3 amino linker (stopped flow); 3' overhang 18 nt on strand 1
JFH-1 NS3 [2] = target: T2, JFH-1 NS3 (Hepatitis C virus genotype 2a strain …, UniProt Q99IB8 1031-1661); assay: filter binding; 3 mM Mg2+; (stopped-flow kon 59 uM-1 s-1, Fig 2A); 25 mM MOPS-NH4+ pH 6.5, 3 mM MgCl2, 30 mM NaCl, 1% glycerol, 2 mM DTT, 0.1% Triton X-100; filter binding 37 C, 0.5 nM RNA, Hill fit; stopped flow 25 C; conditions: protein: recombinant; tags: His6-SUMO removed (native N terminus); 5' Cy3 top strand via C3 amino linker (stopped flow); 3' overhang 18 nt on strand 1
JFH-1 NS3 [3] = target: T2, JFH-1 NS3; assay: filter binding; 3 mM Mg2+; (stopped-flow kon 69 uM-1 s-1, Fig 2B); 25 mM MOPS-NH4+ pH 6.5, 3 mM MgCl2, 30 mM NaCl, 1% glycerol, 2 mM DTT, 0.1% Triton X-100; filter binding 37 C, 0.5 nM RNA, Hill fit; stopped flow 25 C; conditions: protein: recombinant; tags: His6-SUMO removed (native N terminus); 5' Cy3 top strand via C3 amino linker (stopped flow); 3' overhang 12 nt on strand 1
gt1b NS3 [4] = target: T1, gt1b NS3; assay: filter binding; 3 mM Mg2+; (stopped-flow kon 9.9 uM-1 s-1, Fig 2B); 25 mM MOPS-NH4+ pH 6.5, 3 mM MgCl2, 30 mM NaCl, 1% glycerol, 2 mM DTT, 0.1% Triton X-100; filter binding 37 C, 0.5 nM RNA, Hill fit; stopped flow 25 C; conditions: protein: recombinant; tags: His6-SUMO removed (native N terminus); 5' Cy3 top strand via C3 amino linker (stopped flow); 3' overhang 12 nt on strand 1
JFH-1 NS3 [5] = target: T2, JFH-1 NS3; assay: filter binding; 3 mM Mg2+; (stopped-flow kon 15 uM-1 s-1, Fig 2C); 25 mM MOPS-NH4+ pH 6.5, 3 mM MgCl2, 30 mM NaCl, 1% glycerol, 2 mM DTT, 0.1% Triton X-100; filter binding 37 C, 0.5 nM RNA, Hill fit; stopped flow 25 C; conditions: protein: recombinant; tags: His6-SUMO removed (native N terminus); 5' Cy3 top strand via C3 amino linker (stopped flow); 3' overhang 6 nt on strand 1
gt1b NS3 [6] = target: T1, gt1b NS3; assay: filter binding; 3 mM Mg2+; (stopped-flow kon 3.5 uM-1 s-1, Fig 2C); 25 mM MOPS-NH4+ pH 6.5, 3 mM MgCl2, 30 mM NaCl, 1% glycerol, 2 mM DTT, 0.1% Triton X-100; filter binding 37 C, 0.5 nM RNA, Hill fit; stopped flow 25 C; conditions: protein: recombinant; tags: His6-SUMO removed (native N terminus); 5' Cy3 top strand via C3 amino linker (stopped flow); 3' overhang 6 nt on strand 1
JFH-1 NS3 [7] = target: T2, JFH-1 NS3; assay: filter binding; 3 mM Mg2+; legend names NS3-4A; 25 mM MOPS-NH4+ pH 6.5, 3 mM MgCl2, 30 mM NaCl, 1% glycerol, 2 mM DTT, 0.1% Triton X-100; filter binding 37 C, 0.5 nM RNA, Hill fit; stopped flow 25 C; conditions: protein: recombinant; tags: His6-SUMO removed (native N terminus); label: 5'-32P
gt1b NS3 [8] = target: T1, gt1b NS3; assay: as above; conditions: protein: recombinant; tags: His6-SUMO removed (native N terminus); label: 5'-32P

B1: 12bp/18-OH (dsRNA)
RNA 1: CGGCAGCGAGGCAGAGGAGCAGAGGGAGCA
RNA 2: GCCUCGCUGCCG
- Kd (gt1b NS3 [1]): 7.25 ± 0.17 nM
- Kd (JFH-1 NS3 [2]): 6.56 ± 0.23 nM

B2: 12bp/12-OH (dsRNA)
RNA 1: CGGCAGCGAGGCAGAGGAGCAGCA
RNA 2: GCCUCGCUGCCG
- Kd (JFH-1 NS3 [3]): 7.69 ± 0.21 nM
- Kd (gt1b NS3 [4]): 15.7 ± 0.61 nM

B3: 12bp/6-OH (dsRNA)
RNA 1: CGGCAGCGAGGCAGGACA
RNA 2: GCCUCGCUGCCG
- Kd (JFH-1 NS3 [5]): 14.9 ± 0.52 nM
- Kd (gt1b NS3 [6]): 60.4 ± 4.38 nM

Binder: CUGUGGCAUGUCCUAGCGUCGUAUCGAUCUGGUC (ssRNA) [ssT34]
- Kd (JFH-1 NS3 [7]): 8.36 ± 0.29 nM
- Kd (gt1b NS3 [8]): 7.56 ± 0.33 nM
